{"source": "patent US20090324602A1", "about": "(Biogen, published 2009)", "binders": {"B1": {"name": "monoclonal antibody 1.P4A8.3C7 (P4A8), murine (antibody, V domains shown)", "VH": "QVQLQQSGPEVVRPGVSVKISCKGSGYTFTDYGMHWVKQSHAKSLEWIGVISTYNGYTNYNQKFKGKATMTVDKSSSTAYMELARLTSEDSAIYYCARAYYGNLYYAMDYWGQGTSVTVSS", "VL": "DIVLTQSPASLAVSLGQRATISCRASKSVSTSSYSYMHWYQQKPGQPPKLLIKYASNLESGVPARFSGSGSGTDFILNIHPVEEEDAATYYCQHSRELPFTFGSGTKLEIK", "notes": "Mouse hybridoma mAb (ATCC PTA-9947); also called muP4A8; murine P4A8 mAb"}, "B2": {"name": "monoclonal antibody P3D8, murine (antibody, V domains shown)", "VH": "not shown", "VL": "B1 VL with A55T, F100W, S104G"}, "B3": {"name": "monoclonal antibody 1.P2D3.3D5 (P2D3), murine (antibody, V domains shown)", "VH": "not shown", "VL": "B1 VL with A55T, F100W, S104G", "notes": "Mouse hybridoma mAb (ATCC PTA-9948)"}, "B4": {"name": "monoclonal antibody 1.P3G5.1E4 (P3G5), murine (antibody, V domains shown)", "VH": "B1 VH with M34I", "VL": "B1 VL with S26N", "notes": "Mouse hybridoma mAb (ATCC PTA-9949)"}, "B5": {"name": "humanized P4A8 (H1/L2) huIgG1, kappa (antibody, V domains shown)", "VH": "QVQLVQSGAEVKKPGASVKVSCKGSGYTFTDYGMHWVRQAPGQGLEWMGVISTYNGYTNYNQKFKGRVTMTVDKSTSTAYMELRSLRSDDTAVYYCARAYYGNLYYAMDYWGQGTLVTVSS", "VL": "DIVLTQSPASLAVSLGQRATISCRASKSVSTSSYSYMHWYQQKPGQPPKLLIKYASNLESGVPARFSGSGSGTDFILNIHPMEEDDTAMYFCQHSRELPFTFGGGTKLEIKR", "notes": "One of the 'six versions of huP4A8' (two heavy chains by three light chains) expressed transiently in 293E cells; also called version of huP4A8 H1/L2"}, "B6": {"name": "humanized P4A8 (H2/L1) huIgG1, kappa (antibody, V domains shown)", "VH": "B5 VH with M48I, V68A", "VL": "B5 VL with I76S", "notes": "One of the 'six versions of huP4A8'; also called version of huP4A8 H2/L1"}, "B7": {"name": "humanized P4A8 (H2/L2) huIgG1, kappa (antibody, V domains shown)", "VH": "B5 VH with M48I, V68A", "VL": "B5 VL", "notes": "One of the 'six versions of huP4A8'; also called version of huP4A8 H2/L2"}, "B8": {"name": "humanized P4A8 (H1/L1) huIgG1, kappa (antibody)", "heavy": "not shown", "light": "DIVLTQSPASLAVSLGQRATISCRASKSVSTSSYSYMHWYQQKPGQPPKLLIKYASNLESGVPARFSGSGSGTDFSLNIHPMEEDDTAMYFCQHSRELPFTFGGGTKLEIKRTVAAPSVFIFPPSDEQLKSGTASVVCLLNNFYPREAKVQWKVDNALQSGNSQESVTEQDSKDSTYSLSSTLTLSKADYEKHKVYACEVTHQGLSSPVTKSFNRGEC", "notes": "H1 heavy chain (pYL310) with L1 kappa light chain (pYL321); also called huP4A8; hP4A8.IgG1"}, "B9": {"name": "humanized P4A8 (H2/L3) huIgG1, kappa (antibody, V domains shown)", "VH": "B5 VH with M48I, V68A", "VL": "B5 VL with M89T, F91Y", "notes": "One of the 'six versions of huP4A8'; also called version of huP4A8 H2/L3"}, "B10": {"name": "humanized P4A8 (H1/L3) huIgG1, kappa (antibody, V domains shown)", "VH": "B5 VH", "VL": "B5 VL with M89T, F91Y", "notes": "One of the 'six versions of huP4A8'; also called version of huP4A8 H1/L3"}, "B11": {"name": "humanized P4A8 (H1/L1) aglycosylated S228P/T299A huIgG4, kappa (antibody)", "heavy": "not shown", "light": "B8 light", "notes": "also called huP4A8-aglyG4P; hP4A8.IgG4Pagly"}}, "key": {"[1]": {"target": "T1, human Fn14 M50A, expressed on the cell surface (human, UniProt Q9NP84 28-129)", "T1 construct": "also called pYL396", "experiment": "FACS direct binding, cells expressing the huFn14 construct, MFI", "source_text": "(§1) A panel of huFn14 point mutants was made by substituting Xenopus residues into the human sequence at a number positions by site-directed mutagenesis on the pEAG2121 template (EBV expression vector for huFn14): pYL391 T33Q, pYL392 S40R, pYL393 L65Q, pYL396 M50A, pYL397 R56K, pYL398 R56P (a more drastic substitution than the Xenopus change) and pYL399 H60K."}, "[2]": {"target": "T2, human Fn14 R56K, expressed on the cell surface (human, UniProt Q9NP84 28-129)", "T2 construct": "also called pYL397", "experiment": "FACS direct binding, cells expressing the huFn14 construct, MFI", "source_text": "as §1"}, "[3]": {"target": "T3, rat Fn14, full-length, expressed on the cell surface (rat, UniProt Q9CR75 28-129 (mouse entry))", "T3 construct": "also called pEAG2275", "experiment": "direct binding FACS", "source_text": "(§2) Cells were used in FACS at 2 days post-transfection, staining with monoclonal antibodies of interest (with dilution titration) and gating on green EGFP-positive living cells.\nas §1"}, "[4]": {"target": "T4, mouse Fn14, full-length, expressed on the cell surface (mouse, UniProt Q9CR75 28-129)", "T4 construct": "also called murine Fn14; mu Fn14", "experiment": "FACS direct binding titration on murine surface Fn14 (target per legend paragraph 91), MFI", "source_text": "as §2"}, "[5]": {"target": "T4, mouse Fn14, full-length, expressed on …", "experiment": "FACS titration on cells expressing surface Fn14, MFI against ng/ml anti-Fn14 mab", "source_text": "as §2"}, "[6]": {"target": "T5, cynomolgus monkey Fn14, full-length, expressed on the cell surface (cynomolgus monkey, UniProt Q9NP84 28-129 (human entry))", "T5 construct": "also called cyno Fn14; pEAG2120", "experiment": "FACS direct binding titration on surface Fn14, MFI", "source_text": "as §2"}, "[7]": {"target": "T6, human Fn14 W42A, expressed on the cell surface (human, UniProt Q9NP84 28-129)", "T6 construct": "also called huFn14 W42A; pEAG2251", "experiment": "FACS direct binding, cells expressing the huFn14 construct, MFI", "source_text": "as §1"}, "[8]": {"target": "T7, human Fn14 T33Q, expressed on the cell surface (human, UniProt Q9NP84 28-129)", "T7 construct": "also called pYL391", "experiment": "FACS direct binding, cells expressing the huFn14 construct, MFI", "source_text": "as §1"}, "[9]": {"target": "T8, human Fn14 S40R, expressed on the cell surface (human, UniProt Q9NP84 28-129)", "T8 construct": "also called pYL392", "experiment": "FACS direct binding, cells expressing the huFn14 construct, MFI", "source_text": "as §1"}, "[10]": {"target": "T9, human Fn14 L65Q, expressed on the cell surface (human, UniProt Q9NP84 28-129)", "T9 construct": "also called pYL393", "experiment": "FACS direct binding, cells expressing the huFn14 construct, MFI", "source_text": "as §1"}, "[11]": {"target": "T1, human Fn14 M50A, expressed on the cell …", "experiment": "FACS direct binding, cells expressing the huFn14 construct, MFI", "remark": "listed apart in the source", "source_text": "as §1"}, "[12]": {"target": "T10, human Fn14 R56P, expressed on the cell surface (human, UniProt Q9NP84 28-129)", "T10 construct": "also called pYL398", "experiment": "FACS direct binding, cells expressing the huFn14 construct, MFI", "source_text": "as §1"}, "[13]": {"target": "T11, human Fn14 H60K, expressed on the cell surface (human, UniProt Q9NP84 28-129)", "T11 construct": "also called pYL399", "experiment": "FACS direct binding, cells expressing the huFn14 construct, MFI", "source_text": "as §1"}, "[14]": {"target": "T12, human Fn14, full-length, expressed on the cell surface (human, UniProt Q9NP84 28-129)", "T12 construct": "Also used for Fn14 on tumour cell lines (WiDr, A375) and in tissue sections; also called huFn14; hu Fn14", "experiment": "FACS dilution titration on 293E cells transiently overexpressing human Fn14; value is C (midpoint) of the printed 4-P fit y=(A-D)/(1+(x/C)^B)+D, x in ug/ml"}, "[15]": {"target": "T13, huFn14-huFc fusion protein (human, UniProt Q9NP84 28-80)", "T13 construct": "also called hFn14-hFc; bivalent Fn14-Fc; not shown: human Fc", "experiment": "competition ELISA on coated huFn14-huFc against a constant amount of biotinylated murine P4A8, OD450; value is C (midpoint) of the printed 4-P fit, x in ng/ml"}, "[16]": {"target": "T12, human Fn14, full-length, expressed on …", "experiment": "FACS on WiDr cells"}, "[17]": {"target": "T14, mouse Fn14-mouse Fc (mouse, UniProt Q9CR75 28-80)", "T14 construct": "not shown: mouse Fc", "experiment": "direct binding ELISA, mouse Fn14-mouse Fc coated at 2 µg/ml, HRP-goat anti-human IgG"}, "[18]": {"target": "T15, soluble monomeric human Fn14 protein (ectodomain with myc and His tags) (human)", "T15 construct": "also called soluble Fn14 protein; soluble human Fn14", "experiment": "SPR (Biacore), antibody amine-coupled on CM5, soluble monomeric human Fn14 0.3-30 nM as analyte, 1:1 fit", "procedure": "(§3) Briefly, proteins were diluted to 30 μg/ml in 10 mM acetate, pH 5.0 and 10 μl was injected over chip surfaces that had been activated with a 10 μl injection of 1:1 N-hydroxsuccinimide (NHS): 1-Ethyl-3(3-dimethylaminopropyl)-carbodiimide hydrochloride (EDC). In addition one flow cell in each experiment was left underivitized as a background control. Excess free amine groups were then capped with a 50 μl injection of 1 M Ethanolamine. Typical immobilization levels were ˜1200 RU.\n(§4) Concentration series ranging from 0.3 to 30 nM, of human Fn14 were prepared in Biacore buffer #1 (10 mM HEPES pH 7.0+150 mM NaCl+3.4 mM EDTA+0.005% P-20 detergent+0.05% BSA). The amino acid sequence of the soluble Fn14 protein used in these experiments was [sequence] [sequence]. Samples were run over antibody and control surfaces in non-sequential order at a flow rate of 50 μl/min for 5 minutes followed by 15 minutes dissociation in Biacore buffer #1. After each cycle the chip was regenerated with 15 mM NaOH.\n(§5) Raw data were normalized by setting the preinjection response to zero on the Y-axis and the injection start to zero on the X-axis for each concentration series. Data were further normalized by subtracting the response on the underivitized surface from the response on the active surfaces and then subtracting the buffer only response on the active surface from the binding data on the same surface (so-called ‘double referencing’ of the data). The global association and dissociation rate constants were then determined for each concentration series by fitting the data using a Marquardt-Levenberg algorithm for 1:1 binding within the Biaevaluation software. The affinity constant was calculated from the ratio of the rate constants (KD=kd/kₐ)."}, "[19]": {"target": "T15, soluble monomeric human Fn14 protein …", "experiment": "SPR (Biacore), antibody amine-coupled on CM5, soluble monomeric human Fn14 0.3-30 nM as analyte, KD = kd/ka", "procedure": "as §3, §4, §5"}, "[20]": {"target": "T3, rat Fn14, full-length, expressed on the …", "experiment": "FACS direct binding titration on surface rat Fn14; value is C (midpoint) of the printed 4-P fit y=(A-D)/(1+(x/C)^B)+D, x in ng/ml", "source_text": "as §2"}, "[21]": {"target": "T12, human Fn14, full-length, expressed on …", "experiment": "FACS direct binding titration on surface human Fn14; value is C (midpoint) of the printed 4-P fit y=(A-D)/(1+(x/C)^B)+D, x in ng/ml", "source_text": "as §2"}}, "note": "Substitutions are numbered along the chain they refer to. In names and notes the source's numbering stands. Several values for one entry are separate records, joined by “and”; a condition that tells them apart may be missing. Equal values may be shown once. Read-outs that look alike come from different tables or passages of the source."}
{"binder": "B1", "values": [{"measurement": "binding result", "setting": "[1]", "value": "binds"}, {"measurement": "binding result", "setting": "[2]", "value": "binds"}]}
{"binder": "B2", "values": [{"measurement": "binding result", "setting": "[3]", "value": "binds"}, {"measurement": "EC50", "setting": "[4]", "value": 0.00238, "unit": "µg/mL"}]}
{"binder": "B3", "values": [{"measurement": "binding result", "setting": "[3]", "value": "binds"}, {"measurement": "EC50", "setting": "[5]", "value": 0.00478, "unit": "µg/mL"}, {"measurement": "EC50", "setting": "[4]", "value": 0.00226, "unit": "µg/mL"}]}
{"binder": "B4", "values": [{"measurement": "binding result", "setting": "[3]", "value": "binds"}, {"measurement": "EC50", "setting": "[6]", "value": 0.00119, "unit": "µg/mL"}, {"measurement": "binding result", "setting": "[7]", "value": "binds"}, {"measurement": "binding result", "setting": "[8]", "value": "binds"}, {"measurement": "binding result", "setting": "[9]", "value": "binds"}, {"measurement": "binding result", "setting": "[10]", "value": "binds"}, {"measurement": "binding result", "setting": "[11]", "value": "binds"}, {"measurement": "binding result", "setting": "[12]", "value": "binds"}, {"measurement": "binding result", "setting": "[13]", "value": "binds"}, {"measurement": "EC50", "setting": "[4]", "value": 0.00201, "unit": "µg/mL"}]}
{"binder": "B5", "values": [{"measurement": "EC50", "setting": "[14]", "value": 0.178, "unit": "µg/mL"}, {"measurement": "IC50", "setting": "[15]", "value": 0.0408, "unit": "µg/mL"}]}
{"binder": "B6", "values": [{"measurement": "EC50", "setting": "[14]", "value": 0.175, "unit": "µg/mL"}, {"measurement": "IC50", "setting": "[15]", "value": 0.0275, "unit": "µg/mL"}]}
{"binder": "B7", "values": [{"measurement": "EC50", "setting": "[14]", "value": 0.179, "unit": "µg/mL"}, {"measurement": "IC50", "setting": "[15]", "value": 0.0326, "unit": "µg/mL"}]}
{"binder": "B8", "values": [{"measurement": "EC50", "setting": "[16]", "value": 0.12, "unit": "nM"}, {"measurement": "EC50", "setting": "[17]", "value": "~0.00679", "unit": "µg/mL"}, {"measurement": "koff", "setting": "[18]", "value": "0.0029 s⁻¹ and 0.003 s⁻¹"}, {"measurement": "kon", "setting": "[18]", "value": "1.7e+06 M⁻¹ s⁻¹ and 1.8e+06 M⁻¹ s⁻¹"}, {"measurement": "Kd", "setting": "[19]", "value": "2.6 nM and 1.7 nM"}, {"measurement": "EC50", "setting": "[20]", "value": 0.0586, "unit": "µg/mL"}, {"measurement": "EC50", "setting": "[21]", "value": 0.0766, "unit": "µg/mL"}, {"measurement": "EC50", "setting": "[14]", "value": 0.25, "unit": "µg/mL"}, {"measurement": "IC50", "setting": "[15]", "value": 0.0352, "unit": "µg/mL"}]}
{"binder": "B9", "values": [{"measurement": "EC50", "setting": "[14]", "value": 0.175, "unit": "µg/mL"}, {"measurement": "IC50", "setting": "[15]", "value": 0.0357, "unit": "µg/mL"}]}
{"binder": "B10", "values": [{"measurement": "EC50", "setting": "[14]", "value": 0.172, "unit": "µg/mL"}, {"measurement": "IC50", "setting": "[15]", "value": 0.0316, "unit": "µg/mL"}]}
{"binder": "B11", "values": [{"measurement": "koff", "setting": "[18]", "value": "0.0029 s⁻¹ and 0.0047 s⁻¹"}, {"measurement": "kon", "setting": "[18]", "value": "2e+06 M⁻¹ s⁻¹ and 2.9e+06 M⁻¹ s⁻¹"}, {"measurement": "Kd", "setting": "[19]", "value": "3.4 nM and 2.2 nM"}, {"measurement": "EC50", "setting": "[20]", "value": 0.0721, "unit": "µg/mL"}, {"measurement": "EC50", "setting": "[21]", "value": 0.0916, "unit": "µg/mL"}]}
